Consider 8 molecules from paper PMC8024323, “Drosophila TNFRs Grindelwald and Wengen bind Eiger with different affinities and promote distinct cellular functions” (Nature Communications, 2021).

The term Kd denotes the concentration at which binding is half-saturated. Lower therefore signals tighter binding. As a reminder, the stoichiometry N is the number of molecules, sites or subunits per partner or assembly.

First the molecules themselves.
T1: Strep-Egr^146–409 Asn333Ala (Drosophila melanogaster, UniProt Q8MUJ1-2 146-409, Asn333 with Ala)
T1 construct: also called substitution of the Egr glycosylation site Asn333 with Ala; source: mutation by QuikChange
T1 sequence (looked up): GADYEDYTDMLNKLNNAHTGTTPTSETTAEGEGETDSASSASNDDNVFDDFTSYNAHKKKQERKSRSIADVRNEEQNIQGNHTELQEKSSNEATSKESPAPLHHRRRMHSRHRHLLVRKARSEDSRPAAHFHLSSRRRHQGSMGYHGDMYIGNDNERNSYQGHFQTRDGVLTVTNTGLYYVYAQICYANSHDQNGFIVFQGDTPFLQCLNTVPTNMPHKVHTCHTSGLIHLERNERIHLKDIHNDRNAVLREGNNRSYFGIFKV

T2: Strep-Egr^146–409 (Drosophila melanogaster, UniProt Q8MUJ1-2 146-409)
T2 construct: probably SHuffle cells as for the His6 construct
T2 sequence (looked up): T1 sequence (looked up) with A188N

T3: Grnd^30–97 Asn67Ala (Drosophila melanogaster, UniProt Q9VJ83 30-97, Asn67Ala)
T3 sequence: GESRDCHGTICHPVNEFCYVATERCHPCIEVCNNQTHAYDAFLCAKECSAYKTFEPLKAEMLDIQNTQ

T4: Grnd^30–97 Glu52Ala (Drosophila melanogaster, UniProt Q9VJ83 30-97, Glu52Ala)
T4 sequence: T3 sequence with E23A, A38N

T5: Grnd^30–97 His66Ala (Drosophila melanogaster, UniProt Q9VJ83 30-97, His66Ala)
T5 sequence: T3 sequence with H37A, A38N

B1: Grnd^30–97 (extracellular domain of Grindelwald) (domain or fragment, Drosophila melanogaster, UniProt Q9VJ83 30-97, looked up)
chain: T3 sequence with A38N
notes: Grindelwald (Grnd), Drosophila melanogaster, extracellular domain, residues 30-97; pETM14 vector; His6-tag removed with PreScission protease; Monomer by static light scattering; also called wild-type Grnd^30–97; source: E. coli SHuffle B cells (NEB), purified (Ni HiTrap, PreScission, Resource-Q); not shown: His6, N-terminal, cleaved
B2: Grnd^30–97 His66Ala (domain or fragment, Drosophila melanogaster, UniProt Q9VJ83 30-97, looked up)
chain: T3 sequence with H37A, A38N
notes: Grindelwald (Grnd), Drosophila melanogaster, extracellular domain, residues 30-97; also called His66Ala^Grnd; Grnd-His66Ala; source: E. coli SHuffle B cells, purified (as Grnd^30–97); mutation by QuikChange; not shown: His6, N-terminal, cleaved
B3: Grnd^30–97 Asn67Ala (domain or fragment, Drosophila melanogaster, UniProt Q9VJ83 30-97, looked up)
chain: T3 sequence
notes: Grindelwald (Grnd), Drosophila melanogaster, extracellular domain, residues 30-97; also called Asn67Ala^Grnd; Grnd-Asn67Ala; source: E. coli SHuffle B cells, purified (as Grnd^30–97); mutation by QuikChange; not shown: His6, N-terminal, cleaved
B4: Grnd^30–97 Glu52Ala (domain or fragment, Drosophila melanogaster, UniProt Q9VJ83 30-97, looked up)
chain: T3 sequence with E23A, A38N
notes: Grindelwald (Grnd), Drosophila melanogaster, extracellular domain, residues 30-97; also called Glu52Ala^Grnd; Grnd-Glu52Ala; source: E. coli SHuffle B cells, purified (as Grnd^30–97); mutation by QuikChange; not shown: His6, N-terminal, cleaved
B5: Egr^146–409 (extracellular portion of Eiger, His6-tagged) (domain or fragment, Drosophila melanogaster, UniProt Q8MUJ1-2 146-409, looked up)
chain: T1 sequence (looked up) with A188N
notes: Cloned in a pET43 vector; Trimer by static light scattering; also called Egr/TNF; Egr extracellular domain; source: E. coli SHuffle cells, purified (HiTrap chelating Ni column, Superdex-200 SEC)
B6: Grnd^30–81 (tryptic fragment of the extracellular domain of Grindelwald) (domain or fragment, Drosophila melanogaster, UniProt Q9VJ83 30-81, looked up)
chain: GESRDCHGTICHPVNEFCYVATERCHPCIEVCNNQTHNYDAFLCAKECSAYK
notes: Grindelwald (Grnd), Drosophila melanogaster, residues 30-81; limits assigned by mass spectrometry; models hold residues 34-81 (free) and 31-81 (complex); also called Grnd-ECD; Grnd-CRD
B7: Egr^269–409 (TNF-homology domain of Eiger, tryptic fragment) (domain or fragment, Drosophila melanogaster, UniProt Q8MUJ1-2 269-409, looked up)
chain: DSRPAAHFHLSSRRRHQGSMGYHGDMYIGNDNERNSYQGHFQTRDGVLTVTNTGLYYVYAQICYNNSHDQNGFIVFQGDTPFLQCLNTVPTNMPHKVHTCHTSGLIHLERNERIHLKDIHNDRNAVLREGNNRSYFGIFKV
notes: Trimer in the crystal (threefold crystallographic symmetry); also called Egr-TNF; TNF domain of Egr

Series [1] concerns the target Egr^146–409 (extracellular portion of Eiger, His6-tagged) (Drosophila melanogaster) (UniProt Q8MUJ1). The experiment in a line: ITC; MicroCal PEAQ-ITC, 25 °C, 0.02 M Tris-HCl pH 8.0, 0.3 M NaCl; Grnd^30–97 at 100–340 μM titrated into 8 μM Egr^146–409; Wgn^78–201 at 4.5 mM titrated into 410 μM Egr^146–409; single-site fit. Background: Isothermal titration calorimetry measures the heat released or taken up as one component is titrated into another.

Series [2] has as its target T1, Strep-Egr^146–409 Asn333Ala. The experiment in a line: pull-down; 2 μM strep-tagged Egr^146–409 adsorbed on Strep-tactin beads, 10 μM Grnd^30–97 in solution, 1 h at 4 °C, 0.01 M Hepes pH 7.5, 0.1 M NaCl, 5% glycerol, 0.05% Tween, 0.5 mM EDTA; Coomassie staining. The conditions noted are these: both partners purified.
Series [3] addresses B5. Put plainly: ITC; MicroCal PEAQ-ITC, 25 °C, 0.02 M Tris-HCl pH 8.0, 0.3 M NaCl; Grnd^30–97 at 100–340 μM titrated into 8 μM Egr^146–409; Wgn^78–201 at 4.5 mM titrated into 410 μM Egr^146–409; single-site fit. The conditions noted are these: both partners purified.
The next series has as its target T2, Strep-Egr^146–409. Put plainly: pull-down; 2 μM strep-tagged Egr^146–409 adsorbed on Strep-tactin beads, 10 μM Grnd^30–97 in solution, 1 h at 4 °C, 0.01 M Hepes pH 7.5, 0.1 M NaCl, 5% glycerol, 0.05% Tween, 0.5 mM EDTA; Coomassie staining. The conditions noted are these: both partners purified.
Series [4] concerns the molecule itself. Put plainly: SEC-MALS; static light scattering, Viscotek GPCmax/TDA with a Superdex 200-10/300 increase column, 0.02 M Tris-HCl pH 8.0, 0.3 M NaCl, 5% glycerol; about 75 μL at about 2 mg/mL (Egr alone and the two complexes).
The target in a further series is T3, Grnd^30–97 Asn67Ala. Put plainly: ITC.
For a further series, the target named is T4, Grnd^30–97 Glu52Ala. Put plainly: ITC.
The target in a further series is T5, Grnd^30–97 His66Ala. The experiment in a line: ITC.
For series [5], the target named is B7. The experiment in a line: SEC; 30 μM Egr^146–409 incubated with Grnd^30–97 in a 1:1.3 molar ratio, treated with trypsin, loaded on a Superdex-5/150 column; fractions on Coomassie SDS-PAGE. As to conditions: both partners purified. A general note: In gel filtration, larger molecules generally elute earlier.
Series [6] concerns the molecule itself. Put plainly: crystal structure; Egr^269–409:Grnd^30–81 complex, 2.02 Å, space group P321, one 1:1 complex per asymmetric unit, 3:3 hetero-hexamer by the crystallographic threefold axis.

Changes are numbered by the printed parent chain.

With “Wgn^78–201 (whole extracellular domain of Wengen) (from UniProt Q9VWS4 78-201) (domain or fragment)”, the dissociation constant Kd in [1] amounted to 12 µM.
As for B1, in series [2], the binding result was “binds”. Further, in series [3], the dissociation constant (Kd) is approximately 0.03 µM.
In the case of B2, the binding result (with Strep-Egr^146–409; in series [3]) was “binds” in each case.
B3: the binding result (with Strep-Egr^146–409; in series [3]) was “binds” throughout.
For B4, the binding result (in the series with Strep-Egr^146–409; in [3]) was “binds” throughout.
As to B5, in series [4], the “stoichiometry N” value stood at 3. Further, the Kd in the series with Grnd^30–97 Asn67Ala is 4.5 µM; with Grnd^30–97 Glu52Ala, 1.3 µM; with Grnd^30–97 His66Ala, 4.8 µM.
Turning to B6, the binding result in series [5] is listed as “binds”.
Take B7: the “stoichiometry N” value in series [6] came to 3.
